This is an account of results in paper doi:10.1101/2022.07.26.501514, “Structural plasticity of Atg18 oligomers: organization of assembled tubes and scaffolds at the isolation membrane” (bioRxiv, 2022).

This data set deals with the molecule itself. Nature of the data set: cryo-EM structure; helical tubes of Atg18, 20 uM in tube buffer (20 mM HEPES, 100 mM KAc, 1 mM DTT, pH 7.2); segmented helical reconstruction, rise 19.4 A, rotation 70.0 degrees.

B1: Atg18-PR72AA (Atg2 binding mutant) (natural protein, Saccharomyces cerevisiae, UniProt P43601 1-500, looked up)
chain: MSDSSPTINFINFNQTGTCISLGTSKGFKIFNCEPFGKFYSEDSGGYAIVEMLFSTSLLALVGIGDQPALSAARLRIINTKKHSIICEVTFPTSILSVKMNKSRLVVLLQEQIYIYDINTMRLLHTIETNPNPRGLMAMSPSVANSYLVYPSPPKVINSEIKAHATTNNITLSVGGNTETSFKRDQQDAGHSDISDLDQYSSFTKRDDADPTSSNGGNSSIIKNGDVIVFNLETLQPTMVIEAHKGEIAAMAISFDGTLMATASDKGTIIRVFDIETGDKIYQFRRGTYATRIYSISFSEDSQYLAVTGSSKTVHIFKLGHSMSNNKLDSDDSNMEEAAADDSSLDTTSIDALSDEENPTRLAREPYVDASRKTMGRMIRYSSQKLSRRAARTLGQIFPIKVTSLLESSRHFASLKLPVETNSHVMTISSIGSPIDIDTSEYPELFETGNSASTESYHEPVMKMVPIRVVSSDGYLYNFVMDPERGGDCLILSQYSILMD
notes: Atg18, Saccharomyces cerevisiae, Uniprot ID P43601, with P72 and R73 changed to alanines; also called Atg18-P72R73; Atg18-PR72R73; source: E. coli BL21(DE3), purified (Ni-NTA, TEV cleavage, second Ni-NTA, gel filtration Superdex 200); not shown: 6xHis, N-terminal, cleaved
Consider B1, for which the binding result is given as “binds”.
